In paper PMC3775092:

Target: KillerRed
Assay: SEC

KillerRed
stoichiometry N: 2
